Paper PMC9354671, “Novel interaction interfaces mediate the interaction between the NEIL1 DNA glycosylase and mitochondrial transcription factor A” (Frontiers in Cell and Developmental Biology, 2022)
One block for each binder: values may come before it.

Experiments:
Settings in all cases: both partners purified
[1] = target: T1, NEIL1-Δ100, truncated NEIL1 lacking 100 residues from the disordered C-terminal region (human, UniProt Q96FI4 1-290); experiment: pull-down; reverse: Flag-tagged TFAM held on anti-FLAG M2 magnetic beads, NEIL1-FL or NEIL1-Δ100 as prey; with and without DNA; eluted with 3X Flag peptide, SDS-PAGE
T1 construct: NEIL1, human, C-terminal 100 residues deleted; Prakash et al., 2017; Sharma et al., 2018; also called NEIL1-∆100; source: E. coli Rosetta 2, purified

NEIL1-∆78 = target: T2, NEIL1-∆78 (human, UniProt Q96FI4 1-312); experiment: far-Western, overlay or dot blot; 50 pmol NEIL1 polypeptides separated by SDS-PAGE, on PVDF, denatured in 6M guanidine HCl and refolded; incubated with purified TFAM overnight; detected with anti-TFAM antibody
T2 construct: NEIL1, human, C-terminal 78 residues deleted; source: E. coli Rosetta 2, purified

NEIL1-∆56 = target: T3, NEIL1-∆56 (human, UniProt Q96FI4 1-334); experiment: as above
T3 construct: NEIL1, human, C-terminal 56 residues deleted; source: E. coli Rosetta 2, purified

[2] = target: T4, full-length NEIL1 (NEIL1-FL), C-terminal His-tagged (human, UniProt Q96FI4 1-390); experiment: as above
T4 construct: NEIL1 DNA glycosylase, human, full length (390 residues by the printed tail aa 290-390; theoretical mass with tag 44.75 kDa); pET30a plasmid from the Doublié and Wallace laboratories; Called 'untagged' in the Flag pull-down, meaning without Flag; also called NEIL1 DNA glycosylase; source: E. coli Rosetta 2, purified (Talon beads, HiTrap SPFF ion exchange, Superdex 200); not shown: His tag, …

[3] = target: T1, NEIL1-Δ100, truncated NEIL1 lacking 100 …; experiment: as above
NEIL1-∆40 = target: T5, NEIL1-∆40 (human, UniProt Q96FI4 1-350); experiment: as above
T5 construct: NEIL1, human, C-terminal 40 residues deleted; source: E. coli Rosetta 2, purified
T5 sequence (Q96FI4 1-350): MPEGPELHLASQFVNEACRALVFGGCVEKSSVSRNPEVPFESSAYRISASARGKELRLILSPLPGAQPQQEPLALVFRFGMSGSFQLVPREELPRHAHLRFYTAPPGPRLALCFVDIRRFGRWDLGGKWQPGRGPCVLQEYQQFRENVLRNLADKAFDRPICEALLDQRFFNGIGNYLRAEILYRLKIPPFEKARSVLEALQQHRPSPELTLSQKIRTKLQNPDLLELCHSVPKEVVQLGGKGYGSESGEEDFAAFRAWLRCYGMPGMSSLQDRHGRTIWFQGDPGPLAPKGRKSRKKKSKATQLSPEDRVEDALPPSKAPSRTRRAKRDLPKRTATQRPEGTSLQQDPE

T1 sequence (Q96FI4 1-290, stated change not applied): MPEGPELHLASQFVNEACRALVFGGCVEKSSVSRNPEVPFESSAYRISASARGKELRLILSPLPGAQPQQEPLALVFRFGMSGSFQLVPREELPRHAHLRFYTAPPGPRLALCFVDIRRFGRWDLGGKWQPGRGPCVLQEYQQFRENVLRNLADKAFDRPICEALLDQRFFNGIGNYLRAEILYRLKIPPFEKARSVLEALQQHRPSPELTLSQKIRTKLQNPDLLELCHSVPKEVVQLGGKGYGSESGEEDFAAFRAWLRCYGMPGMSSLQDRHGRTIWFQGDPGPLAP
T3 sequence (Q96FI4 1-334): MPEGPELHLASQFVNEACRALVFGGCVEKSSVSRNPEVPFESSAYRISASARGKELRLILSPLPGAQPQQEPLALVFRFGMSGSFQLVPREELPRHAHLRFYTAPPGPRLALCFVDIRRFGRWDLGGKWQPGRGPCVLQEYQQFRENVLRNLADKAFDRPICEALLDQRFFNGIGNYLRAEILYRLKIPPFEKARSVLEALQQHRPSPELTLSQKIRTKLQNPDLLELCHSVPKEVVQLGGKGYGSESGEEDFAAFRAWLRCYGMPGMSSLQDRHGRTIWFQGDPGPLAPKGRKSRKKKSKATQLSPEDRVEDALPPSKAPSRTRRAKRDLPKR
T2 sequence (Q96FI4 1-312): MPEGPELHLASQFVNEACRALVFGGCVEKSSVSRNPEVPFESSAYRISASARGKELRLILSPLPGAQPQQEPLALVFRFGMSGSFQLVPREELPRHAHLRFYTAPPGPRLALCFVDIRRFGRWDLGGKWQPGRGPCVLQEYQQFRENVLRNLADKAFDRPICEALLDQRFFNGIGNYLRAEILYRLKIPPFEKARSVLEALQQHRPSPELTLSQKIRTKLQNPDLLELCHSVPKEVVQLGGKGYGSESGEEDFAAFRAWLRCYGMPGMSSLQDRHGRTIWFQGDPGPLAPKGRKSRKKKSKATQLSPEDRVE
T4 sequence (Q96FI4 whole entry, the tested form may be a part): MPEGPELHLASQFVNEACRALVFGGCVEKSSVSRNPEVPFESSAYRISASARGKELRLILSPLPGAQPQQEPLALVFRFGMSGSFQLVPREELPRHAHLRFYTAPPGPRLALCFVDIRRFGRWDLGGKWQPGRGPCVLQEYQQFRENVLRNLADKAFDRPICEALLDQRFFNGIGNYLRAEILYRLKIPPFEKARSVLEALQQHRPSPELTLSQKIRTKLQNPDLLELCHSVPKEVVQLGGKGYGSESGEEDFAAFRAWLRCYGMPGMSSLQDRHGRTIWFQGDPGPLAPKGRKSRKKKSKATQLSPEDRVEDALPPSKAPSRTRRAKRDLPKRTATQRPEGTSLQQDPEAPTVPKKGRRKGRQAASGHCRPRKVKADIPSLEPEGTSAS

binding result [1]: binds
B1: Flag-tagged TFAM (natural protein, UniProt Q00059 43-246, looked up)
chain: SSVLASCPKKPVSSYLRFSKEQLPIFKAQNPDAKTTELIRRIAQRWRELPDSKKKIYQDAYRAEWQVYKEEISRFKEQLTPSQIMSLEKEIMDKHLKRKAMTKKKELTLLGKPKRPRSAYNVYVAERFQEAKGDSPQEKLKTVKENWKNLSDSEKELYIQHAKEDETRYHNEMKSWEEQMIEVGRKDLLRRTIKKQRKYGAEEC
notes: also called C-terminal Flag-tagged purified TFAM; source: E. coli, purified; not shown: Flag, C-terminal, kept

binding result (NEIL1-∆78): binds
binding result (NEIL1-∆56): binds
binding result [2]: binds
binding result [3]: binds
binding result (NEIL1-∆40): binds
B2: mitochondrial transcription factor A (TFAM) lacking the mitochondrial targeting sequence (natural protein, UniProt Q00059 43-246, looked up)
chain: B1 chain
notes: theoretical MW 25.6 kDa; Printed domain limits: HMG-box A 43-122, linker 122-152, HMG-box B 152-222, C-terminal tail 222-246; Subcloned into pET30a from a full-length ORF plasmid; also called full-length TFAM monomer (lacking the N-terminal MTS); source: E. coli, purified (as Ngo et al., 2011)
